Test results taken from patent publication US20260210971A1 (Pfizer, published 2026).

Biological target: T1, DR3 on TF-1 cells (human, UniProt Q93038 25-417)
T1 sequence (looked up): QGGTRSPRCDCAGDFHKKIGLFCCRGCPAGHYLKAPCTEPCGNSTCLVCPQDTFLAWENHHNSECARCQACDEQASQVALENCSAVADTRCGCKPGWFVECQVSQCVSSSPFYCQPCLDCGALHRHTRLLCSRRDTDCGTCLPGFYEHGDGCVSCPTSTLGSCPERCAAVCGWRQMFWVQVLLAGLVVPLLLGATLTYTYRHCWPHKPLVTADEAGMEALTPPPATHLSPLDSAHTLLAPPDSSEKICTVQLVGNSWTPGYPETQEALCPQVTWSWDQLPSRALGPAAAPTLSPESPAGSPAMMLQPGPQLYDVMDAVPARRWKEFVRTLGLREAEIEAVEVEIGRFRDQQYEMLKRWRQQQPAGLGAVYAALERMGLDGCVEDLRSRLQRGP
Assay: cell-based or functional assay

B1: recombinant soluble human TL1A (ligand)
chain: ALKGQEFAPSHQQVYAPLRADGDKPRAHLTVVRQTPTQHFKNQFPALHWEHELGLAFTKNRMNYTNKFLLIPESGDYFIYSQVTFRGMTSECSEIRQAGRPNKPDSITVVITKVTDSYPEPTQLLMGTKSVCEVGSNWFQPIYLGAMFSLQEGDKLMVNVSDISLVDYTKEDKTFFGAFLL
With B1 the “NFκB-luciferase activity in TF-1-NFκB-luciferase cells, EC50” value was 149 pM, the “NFκB-luciferase activity, EC50 in the absence of isotype control antibody” value was 103 pM and the “NFκB-luciferase activity, EC50 in the presence of isotype control antibody” value was 110 pM. The “caspase activity in TF-1 cells with cycloheximide, EC50” value was 90 pM.
